Substitutions are numbered along the chain they refer to.
B1: PS3B919 (bispecific antibody, human IgG1, lambda, L234A L235A)
heavy 1: QVQLQQSGPRLVRPSQTLSLTCAISGDSVFNNNAAWSWIRQSPSRGLEWLGRTYYRSKWLYDYAVSVKSRITVNPDTSRNQFTLQLNSVTPEDTALYYCARGYSSSFDYWGQGTLVTVSSASTKGPSVFPLAPSSKSTSGGTAALGCLVKDYFPEPVTVSWNSGALTSGVHTFPAVLQSSGLYSLSSVVTVPSSSLGTQTYICNVNHKPSNTKVDKKVEPKSCDKTHTCPPCPAPEAAGGPSVFLFPPKPKDTLMISRTPEVTCVVVSVSHEDPEVKFNWYVDGVEVHNAKTKPREEQYNSTYRVVSVLTVLHQDWLNGKEYKCKVSNKALPAPIEKTISKAKGQPREPQVYTLPPSREEMTKNQVSLTCLVKGFYPSDIAVEWESNGQPENNYKTTPPVLDSDGSFLLYSKLTVDKSRWQQGNVFSCSVMHEALHNHYTQKSLSLSPG
light 1: QSALTQPASVSGSPGQSITISCTGTSSNIGTYKFVSWYQQHPDKAPKVLLYEVSKRPSGVSSRFSGSKSGNTASLTISGLQAEDQADYHCVSYAGSGTLLFGGGTKLTVLGQPKAAPSVTLFPPSSEELQANKATLVCLISDFYPGAVTVAWKADSSPVKAGVETTTPSKQSNNKYAASSYLSLTPEQWKSHRSYSCQVTHEGSTVEKTVAPTECS
heavy 2: EVQLVESGGGLVQPGGSLRLSCAASGFTFSSYAMSWVRQAPGKGLEWVSAISGGIGSTYYADSVKGRFTISRDNSKNTLWLQMNSLRAEDTAVYYCAKDGVGATPYYFDYWGQGTLVTVSSASTKGPSVFPLAPSSKSTSGGTAALGCLVKDYFPEPVTVSWNSGALTSGVHTFPAVLQSSGLYSLSSVVTVPSSSLGTQTYICNVNHKPSNTKVDKKVEPKSCDKTHTCPPCPAPEAAGGPSVFLFPPKPKDTLMISRTPEVTCVVVSVSHEDPEVKFNWYVDGVEVHNAKTKPREEQYNSTYRVVSVLTVLHQDWLNGKEYKCKVSNKALPAPIEKTISKAKGQPREPQVYTLPPSREEMTKNQVSLTCLVKGFYPSDIAVEWESNGQPENNYKTTPPVLDSDGSFFLYSRLTVDKSRWQQGNVFSCSVMHEALHNHYTQKSLSLSPG
light 2: QSVLTQPPSVSAAPGQKVTISCSGSSSNIGNNYVSWYQQLPGTAPKLLIYDNNKRPSGIPDRFSGSKSGTSATLGITGLQTGDEADYYCGTWDSSLSAYVFGTGTKVTVLGQPKAAPSVTLFPPSSEELQANKATLVCLISDFYPGAVTVAWKADSSPVKAGVETTTPSKQSNNKYAASSYLSLTPEQWKSHRSYSCQVTHEGSTVEKTVAPTECS
notes: FAB-A: CD3B891 (CD3B376 - K477); FAB-B: PSMB895
B2: PS3B912 (bispecific antibody, human IgG1, lambda, L234A L235A)
heavy 1: B1 heavy 1
light 1: B1 light 1
heavy 2: B1 heavy 2 with A23T, T28I, I55Y, S57A, T58P, S63T, W80Y, Y110D, T115I
light 2: B1 light 2 with Y50F
notes: FAB-A: CD3B891 (CD3B376 - K477); FAB-B: PSMB899
B3: PS3B920 (bispecific antibody, human IgG1, lambda, L234A L235A)
heavy 1: B1 heavy 1
light 1: B1 light 1
heavy 2: B1 heavy 2 with I55S, W80Y, T91S
light 2: B1 light 2
notes: FAB-A: CD3B891 (CD3B376 - K477); FAB-B: PSMB897
B4: PS3B921 (bispecific antibody, human IgG1, lambda, L234A L235A)
heavy 1: B1 heavy 1
light 1: B1 light 1
heavy 2: B1 heavy 2
light 2: B1 light 2 with N31I, Y99V, T103G, V107L
notes: FAB-A: CD3B891 (CD3B376 - K477); FAB-B: PSMB896
B5: PS3B922 (bispecific antibody, human IgG1, lambda, L234A L235A)
heavy 1: B1 heavy 1
light 1: B1 light 1
heavy 2: B1 heavy 2 with I55S, W80Y, T91S
light 2: B1 light 2 with N31I, Y99V, T103G, V107L
notes: FAB-A: CD3B891 (CD3B376 - K477); FAB-B: PSMB898
B6: PS3B926 (bispecific antibody, human IgG1, kappa, lambda, L234A L235A)
heavy 1: EVQLVESGGGLVKPGGSLRLSCAASGFTFSRYNMNWVRQAPGKGLEWVSSISTSSNYIYYADSVKGRFTFSRDNAKNSLDLQMSGLRAEDTAIYYCTRGWGPFDYWGQGTLVTVSSASTKGPSVFPLAPSSKSTSGGTAALGCLVKDYFPEPVTVSWNSGALTSGVHTFPAVLQSSGLYSLSSVVTVPSSSLGTQTYICNVNHKPSNTKVDKKVEPKSCDKTHTCPPCPAPEAAGGPSVFLFPPKPKDTLMISRTPEVTCVVVSVSHEDPEVKFNWYVDGVEVHNAKTKPREEQYNSTYRVVSVLTVLHQDWLNGKEYKCKVSNKALPAPIEKTISKAKGQPREPQVYTLPPSREEMTKNQVSLTCLVKGFYPSDIAVEWESNGQPENNYKTTPPVLDSDGSFLLYSKLTVDKSRWQQGNVFSCSVMHEALHNHYTQKSLSLSP
light 1: DIQMTQSPSSLSASVGDRVTITCRARQSIGTAIHWYQQKPGKAPKLLIKYASESISGVPSRFSGSGSGTDFTLTISSLQPEDFATYYCQQSGSWPYTFGQGTKLEIKRTVAAPSVFIFPPSDEQLKSGTASVVCLLNNFYPREAKVQWKVDNALQSGNSQESVTEQDSKDSTYSLSSTLTLSKADYEKHKVYACEVTHQGLSSPVTKSFNRGEC
heavy 2: not shown
light 2: not shown
notes: FAB-A: CD3B2183 (CD3W245); FAB-B: PSMB891
B7: PS3B928 (bispecific antibody, human IgG1, kappa, lambda, L234A L235A)
heavy 1: B6 heavy 1
light 1: B6 light 1
heavy 2: not shown
light 2: not shown
notes: FAB-A: CD3B2183 (CD3W245); FAB-B: PSMB892
B8: PS3B932 (bispecific antibody, human IgG1, kappa, lambda, L234A L235A)
heavy 1: B6 heavy 1
light 1: B6 light 1
heavy 2: B1 heavy 2
light 2: B1 light 2
notes: FAB-A: CD3B2183 (CD3W245); FAB-B: PSMB895
B9: PS3B925 (bispecific antibody, human IgG1, kappa, lambda, L234A L235A)
heavy 1: B6 heavy 1
light 1: B6 light 1
heavy 2: B1 heavy 2 with A23T, T28I, I55Y, S57A, T58P, S63T, W80Y, Y110D, T115I
light 2: B1 light 2 with Y50F
notes: FAB-A: CD3B2183 (CD3W245); FAB-B: PSMB899
B10: PS3B933 (bispecific antibody, human IgG1, kappa, lambda, L234A L235A)
heavy 1: B6 heavy 1
light 1: B6 light 1
heavy 2: B1 heavy 2 with I55S, W80Y, T91S
light 2: B1 light 2
notes: FAB-A: CD3B2183 (CD3W245); FAB-B: PSMB897
B11: PS3B934 (bispecific antibody, human IgG1, kappa, lambda, L234A L235A)
heavy 1: B6 heavy 1
light 1: B6 light 1
heavy 2: B1 heavy 2
light 2: B1 light 2 with N31I, Y99V, T103G, V107L
notes: FAB-A: CD3B2183 (CD3W245); FAB-B: PSMB896
B12: PS3B935 (bispecific antibody, human IgG1, kappa, lambda, L234A L235A)
heavy 1: B6 heavy 1
light 1: B6 light 1
heavy 2: B1 heavy 2 with I55S, W80Y, T91S
light 2: B1 light 2 with N31I, Y99V, T103G, V107L
notes: FAB-A: CD3B2183 (CD3W245); FAB-B: PSMB898

What follows are binders tested against T1, human PSMA on prostate cancer cell lines (22RV1, C4-2B) (human, UniProt Q04609 1-750) (assay: flow cytometry on 22RV1 cells).
T1 construct: also called PSMA-expressing cell lines
T1 sequence (Q04609 whole entry): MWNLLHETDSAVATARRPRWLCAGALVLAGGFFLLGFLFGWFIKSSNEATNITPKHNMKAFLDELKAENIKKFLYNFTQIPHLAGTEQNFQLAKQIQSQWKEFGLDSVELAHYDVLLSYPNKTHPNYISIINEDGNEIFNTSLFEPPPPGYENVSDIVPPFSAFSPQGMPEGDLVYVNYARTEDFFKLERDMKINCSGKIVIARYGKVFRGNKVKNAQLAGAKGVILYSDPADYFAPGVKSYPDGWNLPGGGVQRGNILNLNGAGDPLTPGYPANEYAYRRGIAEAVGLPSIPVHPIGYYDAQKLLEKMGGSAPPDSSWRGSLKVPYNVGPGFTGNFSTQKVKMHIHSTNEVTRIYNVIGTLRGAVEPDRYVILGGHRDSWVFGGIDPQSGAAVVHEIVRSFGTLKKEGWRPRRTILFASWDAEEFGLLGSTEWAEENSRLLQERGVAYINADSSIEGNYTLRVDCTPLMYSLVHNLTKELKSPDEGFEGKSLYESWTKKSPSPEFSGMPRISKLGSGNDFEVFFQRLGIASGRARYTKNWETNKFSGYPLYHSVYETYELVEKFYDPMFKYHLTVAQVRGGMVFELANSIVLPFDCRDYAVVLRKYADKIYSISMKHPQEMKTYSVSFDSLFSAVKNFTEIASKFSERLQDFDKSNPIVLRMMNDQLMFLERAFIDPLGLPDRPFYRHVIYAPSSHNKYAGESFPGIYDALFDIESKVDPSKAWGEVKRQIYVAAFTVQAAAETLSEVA
Description: (§1) 22RV1 and C4-2B cells were plated at 50,000 cells per well in 50 μl of assay medium (RPMI, 10% HI FBS) in V bottom plates. Serial dilutions of antibodies were prepared in assay medium with 50 μl of antibody dilutions added to the plates containing cells. The plates were incubated for 60 min at 37° C. at which time 100 μl of staining buffer (Becton Dickinson Cat #554657) was added to all wells of each plate. The plates were centrifuged at 300×G for 5 minutes and the medium was removed from the wells. 200 μl of staining buffer was added to all wells of each plate. The plates were centrifuged at 300× G for 5 minutes and the medium was removed from the wells. 50 μl of 2 μg/ml AlexaFluor647-labeled goat anti-human Fc was added to all wells of the plates and the plates were incubated for 30 minutes at 4° C. 150 μl of staining buffer was added to all wells of each plate. The plates were centrifuged at 300× G for 5 minutes and the medium was removed from the wells.

How did the EC50 turn out when B1 was run?
Its EC50 is 24.9 nM.

Which EC50 does the source give for B2 here?
The EC50 was 54 nM.

B3 was tested. Which EC50 did it give?
The EC50 was 60 nM.

B4 was tested. Which EC50 did it give?
Its EC50 is 4.03 nM.

With B5 as the binder, how does the EC50 read?
The EC50 was 34.7 nM.

For B6, which EC50 is on record?
Its EC50 is 2.9 nM.

With B7 as the binder, how does the EC50 read?
The EC50 was 60 nM.

How did the EC50 turn out when B8 was run?
The EC50 was 48.7 nM.

For B9, which EC50 is on record?
Its EC50 is 21.2 nM.

For B10, which EC50 is on record?
The EC50 was 60 nM.

How did the EC50 turn out when B11 was run?
Its EC50 is 4.96 nM.

Which EC50 does the source give for B12 here?
The EC50 was 39.5 nM.

The binders below were run against T1, human PSMA on prostate cancer cell … (assay: flow cytometry on C4-2B cells).
Description: as §1

B1 was tested. Which EC50 did it give?
Its EC50 is 23.3 nM.

With B2 as the binder, how does the EC50 read?
The EC50 was 36.8 nM.

B3 was tested. Which EC50 did it give?
The EC50 was 60 nM.

With B4 as the binder, how does the EC50 read?
Its EC50 is 6.44 nM.

For B5, which EC50 is on record?
Its EC50 is 44.1 nM.

For B6, which EC50 is on record?
The EC50 was 4.55 nM.

How did the EC50 turn out when B7 was run?
Its EC50 is 60 nM.

How did the EC50 turn out when B8 was run?
The EC50 was 60 nM.

With B9 as the binder, how does the EC50 read?
The EC50 was 11.7 nM.

B10 was tested. Which EC50 did it give?
Its EC50 is 60 nM.

With B11 as the binder, how does the EC50 read?
The EC50 was 11 nM.

B12 was tested. Which EC50 did it give?
Its EC50 is 8.22 nM.

The binders below were run against T2, recombinant human PSMA (human, UniProt Q04609 44-750) (assay: SPR (Biacore 8K), antibody captured on anti-Fc, PSMA in solution).
T2 construct: also called hu PSMA; prostate-specific membrane antigen
T2 sequence (Q04609 44-750 limits assumed): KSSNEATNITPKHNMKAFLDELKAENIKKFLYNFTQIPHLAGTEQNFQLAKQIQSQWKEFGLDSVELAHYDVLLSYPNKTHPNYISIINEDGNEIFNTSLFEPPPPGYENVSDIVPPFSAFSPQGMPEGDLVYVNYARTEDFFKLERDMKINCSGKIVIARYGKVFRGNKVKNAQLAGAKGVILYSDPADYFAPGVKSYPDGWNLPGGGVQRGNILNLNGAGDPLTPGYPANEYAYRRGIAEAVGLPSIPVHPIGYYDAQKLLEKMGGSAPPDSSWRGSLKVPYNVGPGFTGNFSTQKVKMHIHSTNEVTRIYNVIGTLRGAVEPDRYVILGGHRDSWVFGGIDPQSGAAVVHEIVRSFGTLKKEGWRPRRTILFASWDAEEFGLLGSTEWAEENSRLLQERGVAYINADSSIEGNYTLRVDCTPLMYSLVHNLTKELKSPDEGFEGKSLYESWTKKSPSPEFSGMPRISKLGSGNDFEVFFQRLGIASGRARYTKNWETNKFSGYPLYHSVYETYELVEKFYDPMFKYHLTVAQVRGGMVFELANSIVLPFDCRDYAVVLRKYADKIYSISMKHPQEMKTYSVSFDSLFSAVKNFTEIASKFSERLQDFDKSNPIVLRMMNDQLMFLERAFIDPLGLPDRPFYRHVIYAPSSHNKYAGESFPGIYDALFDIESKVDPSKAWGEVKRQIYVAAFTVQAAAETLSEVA
Description: The binding affinity of anti-PSMA to the recombinant human, cynomolgus or mouse PSMA was determined by surface plasmon resonance (SPR) using a Biacore 8K instrument\. […] The association and dissociation were monitored for 3 and 15 minutes, respectively, using a flow rate of 50 μL/min. Raw binding data was referenced by subtracting the analyte binding signals from blanks and analyzed using a 1:1 Langmuir binding model using the Biacore Insight evaluation software to obtain the kinetics which were used to calculate the binding affinity. The anti-PSMA were captured using an anti-human Fc antibody and the antigens were injected in solution.

With B1 as the binder, how does the Kd read?
Its Kd is 0.823 nM.

For B2, which Kd is on record?
Its Kd is 0.174 nM.

B3 was tested. Which Kd did it give?
The Kd was 1.35 nM.

How did the Kd turn out when B4 was run?
The Kd was at most 0.0864 nM.

B5 was tested. Which Kd did it give?
Its Kd is 0.41 nM.

With B6 as the binder, how does the Kd read?
The Kd was at most 0.253 nM.

With B7 as the binder, how does the Kd read?
The Kd was 2.37 nM.

Which Kd does the source give for B8 here?
The Kd was 0.787 nM.

For B9, which Kd is on record?
Its Kd is 0.169 nM.

With B10 as the binder, how does the Kd read?
Its Kd is 1.44 nM.

Which Kd does the source give for B11 here?
The Kd was at most 0.0873 nM.

B12 was tested. Which Kd did it give?
Its Kd is 0.454 nM.
